The labels stand for the following.
B1: Cadherin-1 (Mus musculus), P09803 (parent)
chain: MGARCRSFSALLLLLQVSSWLCQELEPESCSPGFSSEVYTFPVPERHLERGHVLGRVRFEGCTGRPRTAFFSEDSRFKVATDGTITVKRHLKLHKLETSFLVRARDSSHRELSTKVTLKSMGHHHHRHHHRDPASESNPELLMFPSVYPGLRRQKRDWVIPPISCPENEKGEFPKNLVQIKSNRDKETKVFYSITGQGADKPPVGVFIIERETGWLKVTQPLDREAIAKYILYSHAVSSNGEAVEDPMEIVITVTDQNDNRPEFTQEVFEGSVAEGAVPGTSVMKVSATDADDDVNTYNAAIAYTIVSQDPELPHKNMFTVNRDTGVISVLTSGLDRESYPTYTLVVQAADLQGEGLSTTAKAVITVKDINDNAPVFNPSTYQGQVPENEVNARIATLKVTDDDAPNTPAWKAVYTVVNDPDQQFVVVTDPTTNDGILKTAKGLDFEAKQQYILHVRVENEEPFEGSLVPSTATVTVDVVDVNEAPIFMPAERRVEVPEDFGVGQEITSYTAREPDTFMDQKITYRIWRDTANWLEINPETGAIFTRAEMDREDAEHVKNSTYVALIIATDDGSPIATGTGTLLLVLLDVNDNAPIPEPRNMQFCQRNPQPHIITILDPDLPPNTSPFTAELTHGASVNWTIEYNDAAQESLILQPRKDLEIGEYKIHLKLADNQNKDQVTTLDVHVCDCEGTVNNCMKAGIVAAGLQVPAILGILGGILALLILILLLLLFLRRRTVVKEPLLPPDDDTRDNVYYYDEEGGGEEDQDFDLSQLHRGLDARPEVTRNDVAPTLMSVPQYRPRPANPDEIGNFIDENLKAADSDPTAPPYDSLLVFDYEGSGSEAASLSSLNSSESDQDQDYDYLNEWGNRFKKLADMYGGGEDD

Variants of B1 are the subject of the test. The settings on record: with skp2_human SKP2, Q13309.
skp2_human SKP2, Q13309, sequence (Q13309 whole entry): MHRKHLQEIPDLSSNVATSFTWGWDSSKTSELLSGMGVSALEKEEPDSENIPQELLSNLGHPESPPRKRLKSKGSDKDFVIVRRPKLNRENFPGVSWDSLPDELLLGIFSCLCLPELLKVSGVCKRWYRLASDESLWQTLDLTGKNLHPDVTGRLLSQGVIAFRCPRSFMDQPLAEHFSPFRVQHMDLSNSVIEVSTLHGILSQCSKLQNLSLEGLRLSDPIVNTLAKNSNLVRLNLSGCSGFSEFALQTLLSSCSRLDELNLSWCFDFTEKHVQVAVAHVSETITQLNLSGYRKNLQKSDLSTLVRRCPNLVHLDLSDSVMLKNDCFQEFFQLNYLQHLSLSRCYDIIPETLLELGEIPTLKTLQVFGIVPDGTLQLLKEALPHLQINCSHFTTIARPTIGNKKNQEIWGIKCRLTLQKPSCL
Take S840A;S842A;S846A;S849A;S852A;S855A: the “effect of a mutation on the interaction” value is reported as “decreasing interaction strength”.

The record behind these values is IntAct's records for PubMed 22770219.
